Source: article PMC9468113

Target: MST-Red-labeled human MIF (human) (UniProt P14174)
Test: MST; Monolith NT.115, 25 °C; MST-Red-MIF at fixed concentration (312 nM with CXCL4L1, 456 nM with CXCL4) with serial dilutions of the chemokine; 10 mM Tris-HCl, pH 8.0, 0.01% BSA; both in solution

Sequence of MST-Red-labeled human MIF (human) (P14174 2-115): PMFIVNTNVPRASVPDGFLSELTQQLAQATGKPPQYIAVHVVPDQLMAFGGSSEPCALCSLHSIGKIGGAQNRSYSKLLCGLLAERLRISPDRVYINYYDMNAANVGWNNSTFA

“recombinant human CXCL4 (PF4), Peprotech (from UniProt P02776 32-101) (natural protein)” gave a Kd of 2000 nM.
